Molecular target: tyrosinase protein of murine B16 melanoma tumors and melan-A murine melanocytes (murine) (UniProt P11344)
Assay: cell-based or functional assay

Chain of UniProt P11344 (P11344 19-533 limits assumed): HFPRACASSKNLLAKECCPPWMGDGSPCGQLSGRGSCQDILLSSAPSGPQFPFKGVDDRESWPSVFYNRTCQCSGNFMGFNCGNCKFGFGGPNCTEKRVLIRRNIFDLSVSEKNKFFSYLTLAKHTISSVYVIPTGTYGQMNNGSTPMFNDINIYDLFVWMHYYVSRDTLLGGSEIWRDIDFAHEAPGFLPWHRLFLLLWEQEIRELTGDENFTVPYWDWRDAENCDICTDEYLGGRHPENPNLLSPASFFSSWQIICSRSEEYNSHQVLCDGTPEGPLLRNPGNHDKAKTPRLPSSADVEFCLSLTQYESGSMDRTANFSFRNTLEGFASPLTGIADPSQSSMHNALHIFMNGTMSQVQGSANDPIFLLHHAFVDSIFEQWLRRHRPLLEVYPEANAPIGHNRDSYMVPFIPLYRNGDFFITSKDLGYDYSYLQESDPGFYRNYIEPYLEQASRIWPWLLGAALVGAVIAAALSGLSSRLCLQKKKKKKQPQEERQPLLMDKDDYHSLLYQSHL

- decrease in color development with L-DOPA (tyrosinase activity in frozen sections of B16-V tumors): 25 to 50%
Substance: epitope-tagged recombinant human (rh) ZAG (zinc alpha-2-glycoprotein) with myc and 6-His 3' epitope tags (from UniProt P25311 21-298)
